The assay has as its target UBE2A (UniProt P49459 1-152). The experiment in a line: ITC.

Values joined by “and” are separate entries in the source; they are usually repeats but may differ in a detail not shown here. Equal values may be shown once.

B1: UBR4_(4730-5183) (domain or fragment)
chain: AIQHPGTQVLIGTDSIPNLHKLEQVSSDEGIGTLAENLLEALREHPDVNKKIDAARRETRAEKKRMAMAMRQKALGTLGMTTNEKGQVVTKTALLKQMEELIEEPGLTCCICREGYKFQPTKVLGIYTFTKRVALEEMENKPRKQQGYSTVSHFNIVHYDCHLAAVRLARGREEWESAALQNANTKCNGLLPVWGPHVPESAFATCLARHNTYLQECTGQREPTYQLNIHDIKLLFLRFAMEQSFSADTGGGGRESNIHLIPYIIHTVLYVLNTTRATSREEKNLQGFLEQPKEKWVESAFEVDGPYYFTVLALHILPPEQWRATRVEILRRLLVTSQARAVAPGGATRLTDKAVKDYSAYRSSLLFWALVDLIYNMFKKVPTSNTEGGWSCSLAEYIRHNDMPIYEAADKALKTFQEEFMPVETFSEFLDVAGLLSEITDPESFLKDLLNSVP
As a reminder, the Kd is the free concentration of one partner at which half of the binding sites on the other are occupied at equilibrium, for simple one-to-one binding. High values mean lower affinity, low ones higher affinity. For B1, the Kd was 2800 nM and 2580 nM.

For the origin of these results see publication doi:10.1101/2023.05.08.539884 (bioRxiv, 2023).
